According to the supplement of paper PMC12764529:
± gives the half width of the 95% confidence interval.

Assay: folding stability dG unfold (combined trypsin and chymotrypsin); higher = more stable
Procedure, shortened: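 Bayesian fitting of sequencing counts gave K50 for each design. Unfolding free energy followed by setting this against a sequence-predicted unfolded-state K50 and a shared folded-state K50, either per protease or with trypsin and chymotrypsin combined. The designs, under 80 residues and lacking cysteine, were digested in a PA-tagged cDNA display format at 11 threefold-diluted protease concentrations and without protease, and only those with AlphaFold2 dimer inter-PAE above 15 were kept.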

Question: For “SAGGKSISFGKKAGKEKMKEAIKKGLKNIKIVVFKDGKPEVIEVKADDLDKVFDNIPEDSIVVFEPESAGGS [r16_636_TrMRF]”, which “folding stability dG unfold” value is on record?
Answer: Its value is 2.17 ± 0.17 kcal/mol.

Question: For “SAGATLLEERELPDGSRVEVYREPDKLIVRVFSPDREVETRVFPLPPEPPLPVVPVVVDPARGRFVRLSAGG [r19_254_JUSTAS]”, which “folding stability dG unfold” value is on record?
Answer: The value was -0.106 ± 0.077 kcal/mol.

Question: With “SAPPDFKIKDVKVRRHPHKQEDGGKEKEFPMYHVNVRIEDPNGNKIPINFMMDDPEEMLRFARKLLKKLSAG [r14_36_TrROS]” as the sequence, how does the “folding stability dG unfold” value read?
Answer: Its value is 2.14 ± 0.25 kcal/mol.

Question: For “SAGGSAGGSAGPPNIKMEPETRTYVLPGGWAIRVSIMKIKPPDGKPLIMAMEEIIPPDDPSAGGSAGGSAGG [r17_312_TrROS]”, which “folding stability dG unfold” value is on record?
Answer: The value was 1.27 ± 0.31 kcal/mol.

Question: For “SAGGKIKLSPEALKALEEAIKKGDKNKTIFIELPDGSRIEVLPDGRIKVINKNGEEYELSEIKKIYPSAGGS [r16_664_TrROS_Hall]”, which “folding stability dG unfold” value is on record?
Answer: Its value is 2.58 ± 0.22 kcal/mol.

Question: With “SAGGSAEIVIVESPQQVREAAEPENPDGPPVKVIPMTYEEAKNEIRELKKKGKPMKIVIVIDPGTPSAGGSA [r15_567_TrROS]” as the sequence, how does the “folding stability dG unfold” value read?
Answer: Its value is -0.429 ± 0.65 kcal/mol.

Question: Which “folding stability dG unfold” value does the source give for “SAGGSAGGSAAPEVTIKVTITYDPETNVLTIEAEATLPDGRKVRITARINKDGSIEIVSVEEVSAGGSAGGS [r12_1029_TrROS_Hall]” here?
Answer: The value was greater than 6 kcal/mol.

Question: With “SAGGSAGGSAGMEEIEIKFPENGKPLEIYRVPDGSAIIRNPGDGHYFQMDGNKIEIVGPLSAGGSAGGSAGG [r17_476_TrROS]” as the sequence, how does the “folding stability dG unfold” value read?
Answer: Its value is 0.703 ± 0.18 kcal/mol.

Question: For “SWIPVKEIAKYIAREFGMPKENLDNIEEVDPITVHPNPDGWVQVEATIRFRNPRNGKGHEMRIEIHVPKKSA [r9_230_TrROS]”, which “folding stability dG unfold” value is on record?
Answer: The value was 1.96 ± 0.09 kcal/mol.

Question: Which “folding stability dG unfold” value does the source give for “KGVVVGPDEPLVSDDGKLVVFPNAQITYDPKTGKPTIAFHVDPEALAQGDPEALKGLRDLAKELNIDELTPS [r1_438_TrMRF]” here?
Answer: Its value is 0.692 ± 0.12 kcal/mol.

Question: For “SAGGSAPFKAELVSYDPETGVATFKLTLPDGSEVTVVATLDPDGVPHVKAYFPDGSVYDIEEILASSAGGSA [r15_832_TrMRF]”, which “folding stability dG unfold” value is on record?
Answer: Its value is 3.59 ± 0.1 kcal/mol.

Question: Which “folding stability dG unfold” value does the source give for “SAGGSLKIRTVLRLPSPDGTPYLVFSKEAVIHPVPNIVHINLLVPDKEITLTVPLNEVELLGSPEEVLSSAG [r5_15_TrMRF]” here?
Answer: The value was 2.65 ± 0.097 kcal/mol.

Question: Which “folding stability dG unfold” value does the source give for “SAGGSAGGSMGYLTEPDISVTRTPDGTVTVTTTNTTYDPSTGKKLSTTTTTTTVTLAPDEELLSAGGSAGGS [r12_1038_JUSTAS]” here?
Answer: The value was 0.735 ± 0.11 kcal/mol.

Question: With “SAGGSAGGMPPELSEEEVVRRAVERAVRELGVPLEELPPDWRVDARVERVGDEWLVEVDIELPASAGGSAGG [r6_740_TrMRF]” as the sequence, how does the “folding stability dG unfold” value read?
Answer: The value was 1.57 ± 0.083 kcal/mol.

Question: With “SAGGSAGEAYSVVKASWNPETGTLNIVVKNPSTGEQKVYNIKPGNPVIDFPEGSVIESIEINPSPYSAGGSA [r15_959_TrMRF]” as the sequence, how does the “folding stability dG unfold” value read?
Answer: The value was 0.835 ± 0.11 kcal/mol.

Question: Which “folding stability dG unfold” value does the source give for “SAGGSAGGSKTLVIEEDGELYKVRITNKNGKEIEIVMSADEIKKLPPNAKVEVEKIKLPEKKPSAGGSAGGS [r12_419_TrROS_Hall]” here?
Answer: The value was 1.36 ± 0.062 kcal/mol.

Question: With “SAGGSMVLLSEETIGDIKIKTYKDPNGGVITVIEKPGERTIEFIYPDGILTIEFPPDGTKKYSFDPIGSAGG [r13_246_JUSTAS]” as the sequence, how does the “folding stability dG unfold” value read?
Answer: Its value is 2.29 ± 0.1 kcal/mol.

Question: With “SAGGSAGGSASPRTYKYKFTIKYPDGSTSEYEIVDEEDKAKEKIKKEYGAEEIELEIEPEESAGGSAGGSAG [r3_220_JUSTAS]” as the sequence, how does the “folding stability dG unfold” value read?
Answer: The value was 0.637 ± 0.28 kcal/mol.

Question: Which “folding stability dG unfold” value does the source give for “SAGGSAKRVITIGNDEDQERVQEEAEDNGVKKRPIPGDWDDFLSNLQDNFPEIDRIVIPNGREFEISAGGSA [r15_712_TrROS]” here?
Answer: Its value is -0.953 ± 0.44 kcal/mol.

Question: With “SAGGSAGGSAGITIRDPDNGMWIQIEKTPDMFKVEIEMPGNGKKVEFTFPPGQSLDDLKISAGGSAGGSAGG [r11_772_TrROS]” as the sequence, how does the “folding stability dG unfold” value read?
Answer: The value was 0.571 ± 0.12 kcal/mol.

Question: With “SAGGSMVVVPVEVTVPPEELEQYLEDLRAAYEKPGVKVEILPVEREPIRDPAGRVEEVRAKATIKIVPSAGG [r13_707_JUSTAS]” as the sequence, how does the “folding stability dG unfold” value read?
Answer: The value was 0.207 ± 0.08 kcal/mol.

Question: With “SAGGSAGGSAEIKIEYTLAPDGTLYVKVEIPNPETGETLVLEGPFDSLEEAIEVAKELEKESAGGSAGGSAG [r3_174_TrMRF]” as the sequence, how does the “folding stability dG unfold” value read?
Answer: The value was 2.68 ± 0.18 kcal/mol.

Question: With “SAEVEVELVEVNGKLFLVMKVKEKDENGKEREYLVVVEVEFDPETKKLTVKVYVFPSKEEAEEALKKLLSAG [r14_500_TrROS_Hall]” as the sequence, how does the “folding stability dG unfold” value read?
Answer: Its value is greater than 6 kcal/mol.

Question: Which “folding stability dG unfold” value does the source give for “SAGGSAGGSAGGKTIVLLDEETNELVTIEIDEETGEVKITVVRLKDGKLETKTETIKLPSAGGSAGGSAGGS [r10_756_TrROS_Hall]” here?
Answer: The value was 2.07 ± 0.19 kcal/mol.

Question: Which “folding stability dG unfold” value does the source give for “SAGGSAGGMDAEELAERIANHFQEHFPDMPIKVEVDPDHGWAKIEMRNPNNPGQKHEFEIPIDKSAGGSAGG [r6_478_TrROS]” here?
Answer: The value was 0.912 ± 0.1 kcal/mol.

Question: Which “folding stability dG unfold” value does the source give for “SAGGSAIPPDNVKEEREITDPDDDTKIKVWRYPNDGRYWVQVYNKKGEPKWKQLGPMPANQAEDLISAGGSA [r15_295_TrROS]” here?
Answer: Its value is -0.057 ± 0.23 kcal/mol.

Question: Which “folding stability dG unfold” value does the source give for “SAGGIELKINIQMPAEEAVEFIRNFIEELGYEIEDIEVERDPENGMVSVPIEFEIKPVPPVDPEDQKSAGGS [r16_584_TrROS]” here?
Answer: The value was 0.315 ± 0.19 kcal/mol.

Question: For “SAGGSAGGSASKPYTITLPGNYRIEVYELPDGTYLARIYFPDKPGYYALALLTDNSIYIFPSAGGSAGGSAG [r3_170_TrMRF]”, which “folding stability dG unfold” value is on record?
Answer: The value was 3.47 ± 0.068 kcal/mol.

Question: With “SAGGSAGGSLIPADRTYKVTVTVEGDKVILTLTDPTSSVTYTLTLDIGPEKVPAGSTLTYTGSSAGGSAGGS [r12_525_JUSTAS]” as the sequence, how does the “folding stability dG unfold” value read?
Answer: The value was 1.56 ± 0.25 kcal/mol.

Question: For “SAGGMPVPVKIEIIDDPGTLIITTPNGKPYTIPIPPNSIEEITIDPEKKVIKIKLKDGEIIIDVPDGSAGGS [r16_104_TrMRF]”, which “folding stability dG unfold” value is on record?
Answer: Its value is 1.88 ± 0.11 kcal/mol.

Question: For “SAGGAPIEAAPDEEITLTFTLTVRFRGPDGAEGTATFRLTVPVKVEPVPPVPEPRVFRLPDGSEVTLGSAGG [r13_401_TrMRF]”, which “folding stability dG unfold” value is on record?
Answer: The value was 1.64 ± 0.12 kcal/mol.

Question: With “SAGGSAGGMVVYLQLPDKEATFFVPPSLSEEEVKERLKKALGDPDAPLTNLKIEEATPEELALESAGGSAGG [r6_122_JUSTAS]” as the sequence, how does the “folding stability dG unfold” value read?
Answer: The value was 0.222 ± 0.13 kcal/mol.
